{"source": "the DeepSol protein solubility set"}
{"assay": "soluble on expression in E. coli; label from the status in PepcDB or PDB records"}
{"sequence": "GPLGSATITQDTPINQIFTDTALAEKMKTVLGKTNVTDTVSQTDLDQVTTLQADRLGIKSIDGVEYLNNLTQINFSNNQLTDITPLKNLTKLVDILMNNNQIADITPLANLTNLTGLTLFNNQITDIDPLKNLTNLNRLELSSNTISDISALSGLTSLQQLSFGNQVTDLKPLANLTTLERLDISSNKVSDISVLAKLTNLESLIATNNQISDITPLGILTNLDELSLNGNQLKDIGTLASLTNLTDLDLANNQISNLAPLSGLTKLTELKLGANQISNISPLAGLTALTNLELNENQLEDISPISNLKNLTYLTLYFNNISDISPVSSLTKLQRLFFYNNKVSDVSSLANLTNINWLSAGHNQISDLTPLANLTRITQLGLNDQAWTNAPVNYKANVSIPNTVKNVTGALIAPATISDGGSYTEPDITWNLPSYTNEVSYTFSQPVTIGKGTTTFSGTVTQPLKA", "soluble on expression in E. coli": "soluble"}
{"sequence": "GPLGSMATVPVYCVCRLPYDVTRFMIECDACKDWFHGSCVGVEEEEAPDIDIYHCPNCEKTHGKSTLKKKRTWHK", "soluble on expression in E. coli": "soluble"}
{"sequence": "GPLGSMPYSDAKAMLDEVAKIRELGVQRVTRIENLENAKKLWDNANSMLEKGNISGYLKAANELHKFMKEKNLKEDDLRPELSDKTISPKGYAILQSLWGAASDYSRAAATLTESTVEPGLVSAVNKMSAFFMDCKLSPNERATPDPDFKVGKSKILVGIMQFIKDVADPTSKIWMHNTKALMNHKIAAIQKLERSNNVNDETLESVLSSKGENLSEYLSYKYATKDEGREHRYTASTENFKNVKEKYQQMRGDALKTEILADFKDKLAEATDEQSLKQIVAELKSKDEYRILAKGQGLTTQLLGLKTSSVSSFEKMVEETRESIKSQERQTIKIK", "soluble on expression in E. coli": "soluble"}
{"sequence": "GPMNQLDQLGTRINLICNVFDKWIGQQDLNYNLFAVLYTLATEGSRTQKHIGEKWSLPKQTVSGVCKTLAGQGLIEWQEGEQDRRKRLLSLTETGKAYAAPLTESAQEFSDKVFATFGDKRTTRLFADLDALAEVMEKTISENKK", "soluble on expression in E. coli": "soluble"}
{"sequence": "GPRRLSIEGNIAVGKSTFVKLLTKTYPEWHVATEPVATWQNIQAAGNQKACTAQSLGNLLDMMYREPARWSYTFQTFSFLSRLKVQLEPFPEKLLQARKPVQIFERSVYSDRYIFAKNLFENGSLSDIEWHIYQDWHSFLLWEFASRITLHGFIYLQASPQVCLKRLYQRAREEEKGIELAYLEQLHGQHEAWLIHKTTKLHFEALMNIPVLVLDVNDDFSEEVTKQEDLMREVNTFVKNL", "soluble on expression in E. coli": "soluble"}
{"sequence": "GPTTPVPVSGSLEVKVNDWGSGAEYDVTLNLDGQYDWTVKVKLAPGATVGSFWSANKQEGNGYVIFTPVSWNKGPTATFGFIVNGPQGDKVEEITLEINGQVI", "soluble on expression in E. coli": "soluble"}
{"sequence": "GPVGYGAATTGGGNKVPVNVATFEAMQSAIDSYSGSGGLVLNYTGKFDFGTIKDVCAQWKLPAKTVQIKNKSDVTIKGANGSAANFGIRVVGNAHNVIIQNMTIGLLQGGEDADSISLEGNSSGEPSKIWVDHNTVFASLTKCSGAGDASFDGGIDMKKGVHHVTVSYNYVYNYQKVALNGYSDSDTKNSAARTTYHHNRFENVESRVPLQRFGLSHIYNNYFNNVTTSGINVRMGGIAKIESNYFENIKNPVTSRDSSEIGYWDLINNYVGSGITWGTPDGSKPYANATNWISTKVFPESLGYIYTVTPAAQVKAKVIATAGAGKNLAE", "soluble on expression in E. coli": "soluble"}
{"sequence": "GQGVYTYEDGGVLQGTYVDGELNGPAQEYDTDGRLIFKGQYKDNIRHGVCWIYYPDGGSLVGEVNEDGEMTGEKIAYVYPDERTALYGKFIDGEMIEGKLATLMSTEEGRPHFELMPGNSVYHFDKSTSSCISTNALLPDPYESERVYVAESLISSAGEGLFSKVAVGPNTVMSFYNGVRITHQEVDSRDWALNGNTLSLDEETVIDVPEPYNHVSKYCASLGHKANHSFTPNCIYDMFVHPRFGPIKCIRTLRAVEADEELTVAYGYDHSPPGKSGPEAPEWYQVELKAFQATQQK", "soluble on expression in E. coli": "soluble"}
{"sequence": "GQSRERLVKWLQDAYAMEKEAETMMAAMASRIEHYPELKRRIEQHVEETQQQSAGVQRCLELLNGSIPTAKGMLSSVLASMHAAGNSMMTDEVTKGVGISYAFEHLEIASYRALVVAARSAGEQEVAQICEDILQQEIEMAEWLIEHQEAIVVAFLEREQLEGVGS", "soluble on expression in E. coli": "soluble"}
{"sequence": "GREPADMVLKGGRFFDLVTGELVASDIAICGDTVVGTCGDYKGRHEIDISGKIVVPGFIDTHLHIESSLVTPHEFDRCVLPYGVTTAICDPHEIANVLGAEGLQFFLDSAMETIMDIRVQLSSCVPATHLETSGADLPIEKLLPFRNHPKVIGLAEFMNFPGVIHKDPVCMAKLEAFQGQHIDGHAPLLSGAALNGYLAAGIRTEHECTSAAEALEKIRKGMHILVREGSVSKDLHALMPIITERLSPYLALCTDDRNPLDIAEQGHLDYMIRTAIASGVEPLAIYRAASISAAKAFGLRDRGLVAPGWRADLVVIDTLQNCKASMVLSGGRLVDDALFATRKPVAPVGLDSVKARPVLASHFGVPVTEGETPVMGVLPGKIITEHRRYKLPTDGNQTTVDLENDIIKVAVIERHGKNGNHANGFVQGFGLKKGAIASTVGHDSHNICVVGVSEDDMALAANRLGDIKGGFVVVEDGRVTGEIALPVAGLMSLEPYETVRDTLHTLRKAAYALGTTLEEPFLQVAFLPLPVIPHLKISDMGMVDVDRFA", "soluble on expression in E. coli": "not soluble"}
{"sequence": "GSESKCPEELANYCDMLLRKTPLSKKLTSEEIEAKLKEVLKKLKYVQNKDVFMRYHKAHLTRRLILDISADSEIEENMVEWLREVGMPADYVNKLARMFQDIKVSEDLNQAFKEMHKNNKLALPADSVNIKILNAGAWSRSSEKVFVSLPTELEDLIPEVEEFYKKNHSGRKLHWHHLMSNGIITFKNEVGQYDLEVTTFQLAVLFAWNQRPREKISFENLKLATELPDAELRRTLWSLVAFPKLKRQVLLYEPQVNSPKDFTEGTLFSVNQEFSLIKNAKVQKRGKINLIGRLQLTTERMREEENEGIVQLRILRTQEAIIQIMKMRKKISNAQLQTELVEILKNMFLPQKKMIKEQIEWLIEHKYIRRDESDINTFIYMA", "soluble on expression in E. coli": "soluble"}
{"sequence": "GSFTMSYCRQEGKDRIIFVTKEDHETPSSAELVADDPNDPYEEHGLILPNGNINWNCPCLGGMASGPCGEQFKSAFSCFHYSTEEIKGSDCVDQFRAMQECMQKYPDLYPQEDEDEEEEREKKPAEQAEETAPIEATATKEEEGSS", "soluble on expression in E. coli": "soluble"}
{"sequence": "GSGPTYCWNEANNPGGPNRCSNNKQCDGARTCSSSGFCQGTSRKPDPGPKGPTYCWDEAKNPGGPNRCSNSKQCDGARTCSSSGFCQGTAGHAAA", "soluble on expression in E. coli": "soluble"}
{"sequence": "GSHHHHHHGSHMDEKLLKTIAESKYLVALTGAGVSAESGIPTFRGKDGLWNRYRPEELANPQAFAKDPEKVWKWYAWRMEKVFNAQPNKAHQAFAELERLGVLKCLITQNVDDLHERAGSRNVIHLHGSLRVVRCTSCNNSFEVESAPKIPPLPKCDKCGSLLRPGVVWFGEMLPPDVLDRAMREVERADVIIVAGTSAVVQPAASLPLIVKQRGGAIIEINPDETPLTPIADYSLRGKAGEVMDELVRHVRKALS", "soluble on expression in E. coli": "soluble"}
{"sequence": "GSHMAAQSGNDAAEVALYERLLQLRVLPGASDVHDVRFVFGDDSRCWIEVAMHGDHVIGNSHPALDPKSRATLEHVLTVQGDLAAFLVVARDMLLASL", "soluble on expression in E. coli": "soluble"}
{"sequence": "GSHMASFNGVSEAELLTKTLPDILTFNLDIVIIGINPGLMAAYKGHHYPGPGNHFWKCLFMSGLSEVQLNHMDDHTLPGKYGIGFTNMVERTTPGSKDLSSKEFREGGRILVQKLQKYQPRIAVFNGKCIYEIFSKEVFGVKVKNLEFGLQPHKIPDTETLCYVMPSSSARCAQFPRAQDKVHYYIKLKDLRDQLKGIERNMDV", "soluble on expression in E. coli": "soluble"}
{"sequence": "GSHMLEDPLRVSPMIREFVQSIDDREWQTQLFALLQKQTYNQVEVDLFELMCKVLDQNLFSQVDWARNTVFFKDLKVDDQMKLLQHSWSDMLVLDHLHHRIHNGLPDETQLNNGQVFNLMSLGLLGVPQLGDYFNELQNKLQDLKFDMGDYVCMKFLILLNPSVRGIVNRKTVSEGHDNVQAALLDYTLTCYPSVNDKFRGLVNILPEIHAMAVRGEDHLYTKHCAGSAPTQTLLMEMLHAKR", "soluble on expression in E. coli": "soluble"}
{"sequence": "GSHMSEWKARRFWASVGIHKEEGGWAVLLDERPLRTPGKQPLRLPTEALALAIAEEWQAVQEVIDPNAMPLTRSANSAIEKVAPQFDAVAAMLGDYGGTDLLSYRADAPEALVRAQAEGWDPLIDWAATELRAPLRITHGVIPVPQDPVVLLKLRAEVASLDPFGLTALHDLVTLPGSLILGLAVIRGRIDAPTAHALSRIDEEFQAERWGRDEEAEAQAASRLAAMRDSERFWHLTRG", "soluble on expression in E. coli": "soluble"}
